Laboratory results from patent US7018836.

Experiments:
GST-Tat 1 86R = GST-Tat 1 86R (UniProt P04608)
[1] = biological target: human P-TEFb from HeLa extract, detected through its kinase subunit PITALRE (human); test: cell-based or functional assay
human P-TEFb from HeLa extract, detected through its kinase subunit PITALRE (human), sequence (P50750 whole entry): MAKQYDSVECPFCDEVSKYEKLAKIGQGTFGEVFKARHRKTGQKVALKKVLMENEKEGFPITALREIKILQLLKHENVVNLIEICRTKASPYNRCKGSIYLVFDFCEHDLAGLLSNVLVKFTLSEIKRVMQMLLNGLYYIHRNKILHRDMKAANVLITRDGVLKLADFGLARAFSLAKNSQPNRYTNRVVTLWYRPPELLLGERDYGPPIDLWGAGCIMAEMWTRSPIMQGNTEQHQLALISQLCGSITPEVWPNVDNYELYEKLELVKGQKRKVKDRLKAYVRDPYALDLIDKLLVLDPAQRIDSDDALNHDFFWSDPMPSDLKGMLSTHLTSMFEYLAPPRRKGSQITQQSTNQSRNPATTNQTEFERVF

GST-Tat 1 48Δ, sequence (P08515 1-218, tags or fused parts left off): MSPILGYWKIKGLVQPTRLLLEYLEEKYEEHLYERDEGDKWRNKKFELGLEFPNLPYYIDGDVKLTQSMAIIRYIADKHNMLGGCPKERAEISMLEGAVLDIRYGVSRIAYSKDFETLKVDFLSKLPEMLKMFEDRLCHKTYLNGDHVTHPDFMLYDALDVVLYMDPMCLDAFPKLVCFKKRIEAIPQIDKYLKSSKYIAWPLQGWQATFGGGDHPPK

## human P-TEFb from HeLa extract, detected through its kinase subunit PITALRE
GST-Tat 1 86R
  phosphorylation of the CTD of RNA polymerase II: The GST-Tat 1 86R/P-TEFb protein complex can phosphorylate the CTD of RNA polymerase II

## GST-Tat 1 48Δ (from UniProt P08515 1-218; P04608 1-48)
[1]
  TAK activity (assayed by GST-Tat48A pull-down) after depletion of human P-TEFb from HNE by antibodies to PITALRE: < 2%

## 86 residue HIV-1 Tat followed by a streptavidin binding tag at its carboxyl terminus (from UniProt P04608 1-86)
[1]
  runoff transcription from the HIV-1 LTR TAR template in HNE, continuous labeling: 12 fold
